T1: human DLL1 (purchased from Acro, DL1-H52H8) (human, UniProt O00548 18-540)
T1 construct: Bought; also called hDLL1
T1 sequence (looked up): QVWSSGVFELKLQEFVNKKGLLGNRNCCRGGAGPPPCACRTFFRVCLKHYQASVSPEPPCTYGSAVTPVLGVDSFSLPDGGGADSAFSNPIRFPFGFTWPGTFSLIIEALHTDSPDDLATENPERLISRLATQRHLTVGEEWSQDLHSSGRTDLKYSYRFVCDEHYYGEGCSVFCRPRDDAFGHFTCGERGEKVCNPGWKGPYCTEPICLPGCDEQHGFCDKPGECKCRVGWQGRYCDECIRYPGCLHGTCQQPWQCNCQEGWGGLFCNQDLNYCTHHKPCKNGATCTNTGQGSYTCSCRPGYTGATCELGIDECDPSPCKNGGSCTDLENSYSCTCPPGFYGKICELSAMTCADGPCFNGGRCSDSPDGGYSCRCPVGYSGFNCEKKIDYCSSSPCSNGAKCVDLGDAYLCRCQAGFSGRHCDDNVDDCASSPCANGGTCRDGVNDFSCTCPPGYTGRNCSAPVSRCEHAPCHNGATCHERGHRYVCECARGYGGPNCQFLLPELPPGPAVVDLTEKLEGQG

T2: recombinant DLL3 protein (purchased from ACRO, DL3-H5255) (human, UniProt Q9NYJ7 27-479)
T2 construct: Bought; also called human DLL3 protein; hDLL3
T2 sequence (looked up): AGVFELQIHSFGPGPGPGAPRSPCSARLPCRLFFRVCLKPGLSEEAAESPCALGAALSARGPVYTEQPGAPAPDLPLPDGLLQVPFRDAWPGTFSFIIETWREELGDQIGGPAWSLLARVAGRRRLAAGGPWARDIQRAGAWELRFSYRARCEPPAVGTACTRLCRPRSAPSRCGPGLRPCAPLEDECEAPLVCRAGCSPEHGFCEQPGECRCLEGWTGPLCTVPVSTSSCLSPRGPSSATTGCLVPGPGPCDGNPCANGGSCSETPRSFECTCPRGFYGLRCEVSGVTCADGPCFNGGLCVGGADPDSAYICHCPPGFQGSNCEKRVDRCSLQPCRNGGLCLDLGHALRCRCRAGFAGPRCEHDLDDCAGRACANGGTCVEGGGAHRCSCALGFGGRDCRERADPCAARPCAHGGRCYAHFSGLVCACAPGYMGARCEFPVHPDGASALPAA

B1: ch6A2 (antibody, human IgG1, kappa, V domains shown)
VH: EVQLQQSGPELVKPGASVKISCKASGYTFTDYNMNWVKQSQGKSLEWIGYIYPYNGGTGYNQKFKTKATLTVDNSSSTAYMEFRSLTSEDSAVYYCARSDPYYTMDYWGQGTSVTVSS
VL: IIVMTQTPKFLLVSAGDRVTISCKASQSVNNDVAWYQQKPGQSPKLLIYFTSNRFTGVPDRFTGSGYGTDFTFTISSVQAEDLAVYFCQQDHNSPYTFGGGTKLEIKR
notes: Chimeric: murine variable regions on human IgG1 heavy and kappa light constant regions; also called chimeric antibody 6A2
B2: ch32E8 (antibody, human IgG1, kappa, V domains shown)
VH: QVTLKESGPGILQPSQTLSLTCSFSGFSLSTSGMGVGWIRQPSGKGLEWLALIWWDDVKRYHPALKSRLTISKDTSSSQVFLKIASVDTADTATYYCARIAEVTGQVGLHYAMDYWGQGTSVTVSS
VL: QTVLTQSPAIMSASLGERVTMTCTASSSVNSSSLHWYQQKPGSSPKLWIYTTSNLASGVPARFSGSGSGTSYSLTISSMEAEDAATYYCHQFHRSPFTFGSGTKLEIKR
notes: Chimeric: murine variable regions on human IgG1 heavy and kappa light constant regions; also called chimeric antibody 32E8
B3: ch23G2 (antibody, human IgG1, kappa, V domains shown)
VH: QVQLQQSGPELVRPGVSVKISCKGSGYTFTDYAIHWVKQSRAKSPEWIGIVSTDSGKTSFNQKFKGKATMTVDKSSTTAYMELVRLTSEDSAIYYCARNPYYDYDGYAMDYWGQGTSVTVSS
VL: DIQMTQSSSYLSVSLGGRVTIICKASDHINNWLAWYQQKPGNAPRLIISGATSLETGVPSRFSGSGSGKDYTLSITSLQTEDVATYYCQQYWSIPYTFGGGTKLEIKR
notes: Chimeric: murine variable regions on human IgG1 heavy and kappa light constant regions; also called chimeric antibody 23G2
B4: ch19C7 (antibody, human IgG1, kappa, V domains shown)
VH: EVQLQQSGPELVRPGASVRMSCKASGYTFTYYVMHWVKQKPGLGLEWIGYINPYNDGTEYNEKFKGKATLTSDKSSSTAFMELSSLTSEDSAVYYCARWLLREYAMDYWGQGTSVTVSS
VL: DIQMTQSPASLSASVGETVTITCRASDNIHNYLAWYQQKQGKSPQLLVYNAKTLADGVPSRFSGSGSGTQYSLKINSLQPEDFGSYYCQHFWSTPWTFGGGTKLEIKR
notes: Chimeric: murine variable regions on human IgG1 heavy and kappa light constant regions; also called chimeric antibody 19C7
B5: ch26D9 (antibody, human IgG1, kappa, V domains shown)
VH: EVQLQQSGPELVKPGASVKMSCKASGYTFTTYVMHWVKQKPGQGLEWIGYINPYNDDTNYNEKFKGKATLTSDKSSSTAYMELSSLTSEDSAVYYCARWGLTGTGDYYAMDYWGQGTSVTVSS
VL: B4 VL with D27G, I29V, K42R, L46V, Q79L, S93T, K103T
notes: Chimeric: murine variable regions on human IgG1 heavy and kappa light constant regions; also called chimeric antibody 26D9
B6: ch13C2 (antibody, human IgG1, kappa, V domains shown)
VH: EVKLVESGGGLVKPGGSLKLSCAASGFAFSSYDMSWVRQTPEKRLEWVATISSGGSYTYYPDSVKGRFTISRDNGRNTLYLQMSSLRSEDTALYYCASPLLGLRFAYWGQGTLVTVSA
VL: QAVVTQESALTTSPGETVTLTCRSSTGAVTTINYANWVQEKPDHLFTGLIGGTNNRAPGVPARFSGSLIGDKAALTITGAQTEDEAIYFCALYYSNHWVFGGGTKLTVLR
notes: Chimeric: murine variable regions on human IgG1 heavy and kappa light constant regions; also called chimeric antibody 13C2
B7: ch15G2 (antibody, human IgG1, kappa, V domains shown)
VH: EVQLQQSGPELEKPGASVRISCKASGYSFTDYNMHWVKQSNGKSLEWIGNIDPYYGGTNYNQKFEGKATLTVDKSSSTAYMQLKSLTSEDSAVYYCARGGNNYGDYWGQGTTLTVSS
VL: DIQMTQSPASLAASVGETVTITCRASENIYYSLAWYQQKQGKSPQLLIFNANSLEDGVPSRFSGSGSGTQYSMKINSMQPEDTATYFCKQAYDVPWTFGGGTKLEIKR
notes: Chimeric: murine variable regions on human IgG1 heavy and kappa light constant regions; also called chimeric antibody 15G2
B8: ch10B1 (antibody, human IgG1, kappa, V domains shown)
VH: DVKLVESGGGLVKPGGSLKLSCAASGFTFSNYTISWVRQTPEKRLEWVATFSSGGSYTYYSDSVKGRFTISRDNAKNTLYLQMSSLKSEDTAMYYCSRDRRSDGYYHLYAMDYWGQGTSVTVSS
VL: DIQMTQTTSSLSASLGDRVTISCRASQDISHYLNWYQQKPDGTVKLLIYYTSRLHSGVPSRFSGSGSGTAYSLTISNLEQEDIATYFCQQGYTLPLTFGAGTKLELKR
notes: Chimeric: murine variable regions on human IgG1 heavy and kappa light constant regions; also called chimeric antibody 10B1
B9: ch33F11 (antibody, human IgG1, kappa, V domains shown)
VH: EVQLQQSGPELVKPGASVKISCKTSGYTFTENTMHWVKQSHGESLEWIGGINPRNGVTSYNQKFKGKATLTVDKSSSTAYMELRSLTSEDSAVYYCTNTYYRDYFDYWGQGTTLTVSS
VL: NIVMTQSPKSMSMSVGERVTLSCKASENVGTYVSWYQQKPDQSPKLLIYGASNRYTGVPDRFTGSGSPTDFTLTISRMQAEDLAHYYCGQTYTYPLTFGAGTKLELKR
notes: Chimeric: murine variable regions on human IgG1 heavy and kappa light constant regions; also called chimeric antibody 33F11
B10: ch1A5 (antibody, human IgG1, kappa, V domains shown)
VH: B9 VH with N32S, T33A, E43K, R54N, V57G, T58I, N61S, T97G, N98S, T99S
VL: B9 VL with K9E, P68A, D70H, R77S, M78V, H85D, Y87H, T91S, T93S
notes: Chimeric: murine variable regions on human IgG1 heavy and kappa light constant regions, expressed in 293F cells; also called chimeric antibody 1A5

Positions count from the first letter of the chain named.

One test has as its target T1, human DLL1 (purchased from Acro, …). Description: ELISA on plate-coated human DLL1 protein (1 µg/ml), HRP goat anti-human secondary, OD 450 nm [left panel]. On the procedure: (§1) The chimeric antibodies obtained in Example 6 were evaluated for their binding abilities to human DLL1 (purchased from Acro, DL1-H52H8) and DLL4 (purchased from Acro, DL4-H5227) proteins using the ELISA method. The ELISA detection method involved diluting DLL1 and DLL4 proteins with PBS to a final concentration of 1 μg/ml and coating them onto 384-well ELISA plates (purchased from Corning, 3700) at 4° C. overnight. The next day, the supernatant in the plate wells was discarded, and the wells were blocked with 80 μl of 3% milk (dissolved in PBS) for 2 hours, followed by washing three times with 80 μl of PBST (0.1% Tween20). […] After washing with 80 μl of PBST (0.1% Tween20) for five times, 25 μl of HRP-labeled goat anti-human secondary antibody (Jackson, 1:10000) was added to each well and incubated at room temperature for 1 hour, discard the supernatant, and the wells were then washed seven times with 80 μl of PBST (0.1% Tween20). After adding 25 μl of TMB chromogen solution for 10 minutes, the reaction was terminated with 2M HCl, and the absorbance value at 450 nm was measured with a Microplate reader (purchased from Biotek, Elx808). […] To assess the cross-reactivity of the antibodies with mouse and monkey DLL3, mouse DLL3-expressing plasmid pCMV3-mDLL3 (purchased from Beijing Yiqiao, MG58052-UT) and monkey DLL3-expressing plasmid pCMV3-rheDLL3 (purchased from Beijing Yiqiao, CG90919-UT) were used to construct overexpressing cell lines. The construction of overexpressing cells was as described in Examples 2-3. The binding abilities of the chimeric antibodies to these cells were determined by flow cytometry to assess the cross-reactivity of the antibodies with different species.
(In an ELISA, binding on a coated surface is turned into a signal by an enzyme label.)
For the molecule B1, the binding result was “no binding (tested: 20 µg/ml)”.
With B2, the binding result is “no binding (tested: 20 µg/ml)”.
The same measure, in the same setting: the entry for B3 is “no binding (tested: 20 µg/ml)”.
The same measure, in the same setting: the entry for B4 is “no binding (tested: 20 µg/ml)”.
Consider B5, for which the binding result is recorded as “no binding (tested: 20 µg/ml)”.
Still for that read-out and setting: with B6 the entry was “no binding (tested: 20 µg/ml)”.
Take B7: the binding result was “no binding (tested: 20 µg/ml)”.
On the same count and under the same terms, with B8 the entry was “no binding (tested: 20 µg/ml)”; with B9, “no binding (tested: 20 µg/ml)”; with B10, “no binding (tested: 20 µg/ml)”.

The target of the next test is T3, human DLL4 (purchased from Acro, DL4-H5227) (human, UniProt Q9NR61 27-524).
T3 construct: Bought; also called hDLL4
T3 sequence (Q9NR61 27-524 limits assumed): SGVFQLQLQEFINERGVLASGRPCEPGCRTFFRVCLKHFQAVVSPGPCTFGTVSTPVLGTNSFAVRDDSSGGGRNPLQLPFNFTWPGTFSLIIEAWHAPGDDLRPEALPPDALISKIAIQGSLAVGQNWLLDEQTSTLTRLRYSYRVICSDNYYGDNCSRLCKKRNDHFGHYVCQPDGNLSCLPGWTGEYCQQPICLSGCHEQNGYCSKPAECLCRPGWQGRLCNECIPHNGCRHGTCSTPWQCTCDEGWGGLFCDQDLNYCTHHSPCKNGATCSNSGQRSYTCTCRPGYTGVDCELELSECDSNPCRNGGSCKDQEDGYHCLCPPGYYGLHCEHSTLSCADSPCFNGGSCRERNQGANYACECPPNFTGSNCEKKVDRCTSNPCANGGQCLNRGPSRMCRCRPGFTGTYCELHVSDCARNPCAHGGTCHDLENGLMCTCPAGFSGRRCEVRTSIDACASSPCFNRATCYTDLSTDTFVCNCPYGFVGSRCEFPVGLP
Briefly: ELISA on plate-coated human DLL4 protein (1 µg/ml), HRP goat anti-human secondary, OD 450 nm [right panel]. On the procedure: as §1
B1: the binding result is on record as “binds”.
Still for that read-out and setting: with B2 the entry was “no binding (tested: 20 µg/ml)”; with B4, “no binding (tested: 20 µg/ml)”.
As to B5, the binding result is “no binding (tested: 20 µg/ml)”.
With B6, the binding result is “no binding (tested: 20 µg/ml)”.
The same measure, in the same setting: the entry for B7 is “no binding (tested: 20 µg/ml)”; for B9 it is “no binding (tested: 20 µg/ml)”.
Still for that read-out and setting: the entry for B10 is “no binding (tested: 20 µg/ml)”.

The target in the next test is T2, recombinant DLL3 protein (purchased …). Briefly: ELISA, plate-coated human DLL3 protein 1 µg/ml.
Regarding B1, the EC50 is 13.1 ng/mL.
Still for that read-out and setting: with B2 the figure was 8.83 ng/mL; with B3, 9.41 ng/mL.
As for B4, the EC50 came out at 8.66 ng/mL.
Still for that read-out and setting: the figure for B5 is 11.8 ng/mL; for B6 it is 395 ng/mL.
The same measure, in the same setting: the figure for B7 is 8.53 ng/mL; for B8 it is 16.8 ng/mL.
Regarding B9, the EC50 turned out to be 9.55 ng/mL.
With B10, the EC50 turned out to be 9.21 ng/mL.

In general, EC50 refers to the concentration needed to bring the measured effect to its halfway point.

The values are drawn from US20250114467A1 (SHANGHAI FUDAN ZHANGJIANG BIO PHARMACEUTICAL, published 2025).
